Results: publication PMC314469, “Protein Interaction Networks by Proteome Peptide Scanning” (PLoS Biology, 2004)

T1: Yfr024 SH3 (LSB3_YEAST), P43603
T1 chain: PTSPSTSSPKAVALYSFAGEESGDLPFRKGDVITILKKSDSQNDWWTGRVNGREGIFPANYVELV

T2: Myo5 SH3 (MYO5_YEAST), Q04439
T2 chain: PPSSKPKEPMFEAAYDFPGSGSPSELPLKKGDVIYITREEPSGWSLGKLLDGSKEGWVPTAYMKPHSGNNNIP

T3: Rvs167 SH3 (RV167_YEAST), P39743
T3 chain: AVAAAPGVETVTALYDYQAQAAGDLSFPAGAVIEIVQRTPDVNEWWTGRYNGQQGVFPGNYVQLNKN

T4: Yhr016c SH3 (YSC84_YEAST), P32793
T4 chain: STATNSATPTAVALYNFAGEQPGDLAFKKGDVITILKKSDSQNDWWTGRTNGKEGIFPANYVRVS

T5: Boi1 SH3 (BOI1_YEAST), P38041
T5 chain: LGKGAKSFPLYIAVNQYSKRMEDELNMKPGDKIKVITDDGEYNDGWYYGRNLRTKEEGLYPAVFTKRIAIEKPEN

T6: Boi2 SH3 (BOI2_YEAST), P39969
T6 chain: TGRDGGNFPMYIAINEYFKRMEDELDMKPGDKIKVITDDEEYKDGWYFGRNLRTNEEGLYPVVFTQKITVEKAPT


Experiments:
Assay in all cases: SPOT array
[1] = biological target: Sho1 SH3 (SHO1_YEAST), P40073
Sequence of Sho1 SH3 (SHO1_YEAST), P40073 (P40073 295-366): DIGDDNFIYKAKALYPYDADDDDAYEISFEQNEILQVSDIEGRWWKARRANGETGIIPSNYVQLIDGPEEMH

[2] = biological target: T1, Yfr024 SH3 (LSB3_YEAST), P43603
[3] = biological target: T2, Myo5 SH3 (MYO5_YEAST), Q04439
[4] = biological target: T3, Rvs167 SH3 (RV167_YEAST), P39743
[5] = biological target: T4, Yhr016c SH3 (YSC84_YEAST), P32793
[6] = biological target: T5, Boi1 SH3 (BOI1_YEAST), P38041
[7] = biological target: T6, Boi2 SH3 (BOI2_YEAST), P39969

| Binder | normalised SPOT signal, Boehringer light units (BLU); mean over the file's lines of this peptide [1] | normalised SPOT signal, Boehringer light units (BLU); mean over the file's lines of this peptide [2] | normalised SPOT signal, Boehringer light units (BLU); mean over the file's lines of this peptide [3] | normalised SPOT signal, Boehringer light units (BLU); mean over the file's lines of this peptide [4] | normalised SPOT signal, Boehringer light units (BLU); mean over the file's lines of this peptide [5] | normalised SPOT signal, Boehringer light units (BLU); mean over the file's lines of this peptide [6] | normalised SPOT signal, Boehringer light units (BLU); mean over the file's lines of this peptide [7] |
| --- | --- | --- | --- | --- | --- | --- | --- |
| KVSSKYDPDNPNKD [YBR235W 48-61] | 31.3 | 44.7 | 434 | 95.8 | 32.1 | 127 | 23.8 |
| KTVDKGLPMIPTYV [YDR516C 56-69] | 8310 | 11.9 | 76.8 | 24.1 | 20.1 | 14.3 | 5 |
| KSYRKADPTNPQGW [YBR055C 231-244] | 29 | 94.7 | 103 | 56 | 9.6 | 78.2 | 0 |
| KRKAKAPPPPPPPP [YDL146W 469-482] | 17.5 | 19.3 | 4030 | 31.2 | 11.5 | 1100 | 22.4 |
| KSIPRTKPNVPPLQ [YDR466W 448-461] | 46.8 | 62.6 | 343 | 39.9 | 27.5 | 613 | 5.4 |
| KTGRKTFPFLPYQI [YGL012W 364-377] | 140 | 171 | 466 | 56.2 | 26.1 | 129 | 29.6 |
| KTKKKTVPVKPLQL [YBL017C 684-697] | 34.1 | 179 | 359 | 44.3 | 38 | 1240 | 67.6 |
| KRRSKSLPTTPGIR [YER054C 189-202] | 29800 | 562 | 592 | 17.6 | 34.5 | 310 | 0.8 |
| KVQIKKVPTDPSSS [YBR136W 25-38] | 28.2 | 9.9 | 191 | 44.5 | 13.5 | 1460 | 64.7 |

Continued, values first:

| normalised SPOT signal, Boehringer light units (BLU); mean over the file's lines of this peptide [1] | normalised SPOT signal, Boehringer light units (BLU); mean over the file's lines of this peptide [2] | normalised SPOT signal, Boehringer light units (BLU); mean over the file's lines of this peptide [3] | normalised SPOT signal, Boehringer light units (BLU); mean over the file's lines of this peptide [4] | normalised SPOT signal, Boehringer light units (BLU); mean over the file's lines of this peptide [5] | normalised SPOT signal, Boehringer light units (BLU); mean over the file's lines of this peptide [6] | normalised SPOT signal, Boehringer light units (BLU); mean over the file's lines of this peptide [7] | Binder |
| --- | --- | --- | --- | --- | --- | --- | --- |
| 119 | 234 | 503 | 160 | 44.4 | 1120 | 24.3 | KVNFRRIPTGPDSP [YIL131C 136-149] |
| 49.9 | 180 | 496 | 200 | 8.7 | 457 | 0 | KVIRKGSPKSPAMV [YKL170W 23-36] |
| 19400 | 559 | 921 | 125 | 58.1 | 585 | 6.2 | KRRSKSLPITPKSI [YIL045W 157-170] |
| 3050 | 251 | 237 | 84.2 | 0 | 142 | 5.4 | KVLIKTLPVLPEAR [YNL271C 1679-1692] |
| 115 | 178 | 262 | 56.8 | 35 | 1200 | 43.4 | KTRNKPKPLWPQVK [YGR033C 56-69] |
| 6.5 | 162 | 167 | 72.7 | 43.6 | 84.2 | 3.7 | KTSTKAQPAEPQAE [YNL071W 132-145] |
| 38.8 | 134 | 245 | 112 | 50.8 | 815 | 0 | KSLQKFEPRYPKTA [YMR014W 24-37] |
